# Measurements reported in publication PMC5081515, “Crystal structures and inhibition of Trypanosoma brucei hypoxanthine–guanine phosphoribosyltransferase” (Scientific Reports, 2016).
# What was measured:
# [1] = substrate: O=c1[nH]cnc2nc[nH]c12; test: purified protein, by the assay type; conditions: other: 0.03 M phosphate buffer, 0.012 M MgCl2, 1 mM DTT, pH 7.4, 25 °C, bases at 500 μM PRib-PP, PRib-PP at 40 μM guanine
# [2] = substrate: O=P(O)(O)OC[C@H]1O[C@H](OP(=O)(O)OP(=O)(O)O)[C@H](O)[C@@H]1O; test: purified protein, by the assay type; conditions: other: 0.03 M phosphate buffer, 0.012 M MgCl2, 1 mM DTT, pH 7.4, 25 °C, bases at 500 μM PRib-PP, PRib-PP at 40 μM guanine
protein,measurement,setting,value
TbrHGPRT (Trypanosoma brucei brucei) (protein) MEPACKYDFATSVLFTEAELHTRMRGVAQRIADDYSNCNLKPLENPLVIVSVLKGSFVFTADMVRILGDFGVPTRVEFLRASSYGHDTKSCGRVDVKADGLCDIRGKHVLVLEDILDTALTLREVVDSLKKSEPASIKTLVAIDKPGGRKIPFTAEYVVADVPNVFVVGYGLDYDQSYREVRDVVILKPSVYETWGKELERRKAAGEAKR,Km,[1],5.5 ± 0.3 µM
same,kcat,[1],17.1 s⁻¹
same,kcat/Km,[1],3.1e+06 M⁻¹ s⁻¹
same,Km,[2],103 ± 16 µM
